This note sets out measurements from the RNAGym collection of RNA variant scans (doi:10.7554/elife.80360).

B1: Hairpin Ribozyme (parent)
chain: GUCCUCUUUCACGUGCGCGUGAAAGAGAGAAGUGAACCAGAGAAACACACGUUGUGGUAUAUUACCUGGUA

Variants of B1 are the subject of this data set. In words: self-cleavage, relative activity (ratio to wild type); higher = more cleavage; co-transcriptional.
In the case of GUCCUCUUUCACGUGCGCGUGAAAGAGAGAAGUGAACCUGGGAAACACACGUUGUGGUAUAUUACCUGGUA [A39U A41G], the self-cleavage turned out to be 0.644.

Consider GUCCUCUUACACGAGCGCGUGAAAGAGAGAAGUGAACCAGAGAAACACACGUUGUGGUAUAUUACCUGGUA [U9A U14A], for which the self-cleavage is 0.594.

In the case of GUCCUCUUUCACGUGCGCGUGAAAGAGAGAAGUGAACCAGAGAAACACACGUUGUGGUUUAUUACCUGGGA [A59U U70G], the self-cleavage worked out at 0.159.

With GUCCUCUUUCACGUGCGCGUGAAAGAGAUAAGUGAACCAGGGAAACACACGUUGUGGUAUAUUACCUGGUA [G29U A41G], the self-cleavage stood at 0.082.

Turning to GUCCUCUUUCACGUGCGCGUGAAAGAGAGAAGUGAACUAGAGAAACACACGUUCUGGUAUAUUACCUGGUA [C38U G54C], the self-cleavage was found to be 0.235.

Regarding GUCCUCUUUCACGUGCGCGUGAAAGAGAGAAGUGACCCACAGAAACACACGUUGUGGUAUAUUACCUGGUA [A36C G40C], the self-cleavage was 0.135.

Regarding GUCCUCUUUCACGUGCGCGUGAAAGAGAGAAGUGAACCGAAGAAACACACGUUGUGGUAUAUUACCUGGUA [A39G G40A], the self-cleavage turned out to be 0.102.

Consider GUCCUCUUUCACGUGCGCGUGAAAGAGAGUUGUGAACCAGAGAAACACACGUUGUGGUAUAUUACCUGGUA [A30U A31U], for which the self-cleavage came out at 0.149.

For the variant GUCCUCGUUCACGUGCGCGUGAACGAGAGAAGUGAACCAGAGAAACACACGUUGUGGUAUAUUACCUGGUA [U7G A24C], the self-cleavage came to 0.677.

For GUCCUCUUUCACGUGCGCGUGAAAGAGAGAAGUCAACCAGAGAAACACACGUUGUGGCAUAUUACCUGGUA [G34C U58C], the self-cleavage came out at 1.4.

With GUCCUCUUUCACGUGCGCGUGAAAGAGAGAAAUGAACCAGCGAAACACACGUUGUGGUAUAUUACCUGGUA [G32A A41C], the self-cleavage worked out at 0.145.

Regarding GUCCUCUUUCACGUGCGCGAGAAAGAGAGAAGUGAACCAGAGGAACACACGUUGUGGUAUAUUACCUGGUA [U20A A43G], the self-cleavage is 0.348.

As for GUCGUCUUUCACGUGCGCGUGAAAGAGCGAAGUGAACCAGAGAAACACACGUUGUGGUAUAUUACCUGGUA [C4G A28C], the self-cleavage is 0.172.

For the variant GUCCACUUUCACGUGCGCGUGAAUGAGAGAAGUGAACCAGAGAAACACACGUUGUGGUAUAUUACCUGGUA [U5A A24U], the self-cleavage was 0.273.

As for GUCCUCUUUCACCUGCGCGUGAAAGAGAGAAGUGAACCAGAGAAACACACGUUGUGGUAUAUUAGCUGGUA [G13C C65G], the self-cleavage worked out at 0.256.

For the variant GUCCUCUUUCACGUGCGCGUGAGAGAGAGAAGUGAACCAGAGAAACACACGUUGUGGUAUAUUACCUAGUA [A23G G68A], the self-cleavage turned out to be 0.311.

Regarding GUCCUCUUUCACGUGCGCGUGAAAGAGAGAAGUGGACCAGAGAAACACAUGUUGUGGUAUAUUACCUGGUA [A35G C50U], the self-cleavage was 0.355.

As to GUCCUCUUUCACGUGCGCGUGAAAGAGAGAAGUGAACCAGAGUAACACACGUUGAGGUAUAUUACCUGGUA [A43U U55A], the self-cleavage came to 0.129.

Take GUCCUCUUUCACGGGCGAGUGAAAGAGAGAAGUGAACCAGAGAAACACACGUUGUGGUAUAUUACCUGGUA [U14G C18A]: the self-cleavage was 0.941.

As for GUCCUCUUUCACGUGCGCGUGAAAGAGAGAAGUGAACCAGAGAAACCCACGUUGUGGUAUAUUAACUGGUA [A47C C65A], the self-cleavage is 0.282.

On to GUCCUCUUUCACGUGCGAGUGAAAGAGAGAAGUGAACCAGAGAAACACACGUUGUGCUAUAUUACCUGGUA [C18A G57C], for which the self-cleavage came to 0.187.

With GUCCUCUUUCACGUGCGCGUGAAAGAGAGAAGUGAACCACAGAAAAACACGUUGUGGUAUAUUACCUGGUA [G40C C46A], the self-cleavage worked out at 0.155.

Take GUCCUCUUUCACGUGCGCGUGAAAGAGAGAAGUGAACCACAGAAACACACUUUGUGGUAUAUUACCUGGUA [G40C G51U]: the self-cleavage was 0.131.

As for GUCCUCUUUCACGUGCGCGUGAAAUAGAGAAGUGUACCAGAGAAACACACGUUGUGGUAUAUUACCUGGUA [G25U A35U], the self-cleavage was determined as 0.474.

For GCCCUCAUUCACGUGCGCGUGAAAGAGAGAAGUGAACCAGAGAAACACACGUUGUGGUAUAUUACCUGGUA [U2C U7A], the self-cleavage worked out at 0.119.

On to GUCCUCUUUCACGUGCGCGUGAAAGAGAGAAGUGAACCAGAGAAACACACGCUGUGGUAUAUUAACUGGUA [U52C C65A], for which the self-cleavage came out at 1.2.

Consider GUCCUCUUUCACGUGCGCGUGAAAGAGAGAAGUGAACCAGAGAAACAAACGUUGUGGUAUAUUACAUGGUA [C48A C66A], for which the self-cleavage was determined as 0.189.

As to GUCCUCUUUCACGUGCGCGUGAAAGAGAGAAGUGAACCAGAGAAACACACGUUGUGGUAUAUGACCUCGUA [U63G G68C], the self-cleavage is 0.169.

GCCCUCUUUCACGUGCGCGUGAAAGAGAGAAGUGAACCAGAGAAACACACGUUGUGGUAUAUUACCUGGUA [U2C]: the self-cleavage was 0.171.

As to GUCCUCUUUCACGUGCGCGUGAAAGAGAGAAGUGAUCCAGAGAAACUCACGUUGUGGUAUAUUACCUGGUA [A36U A47U], the self-cleavage is 0.141.

On to GUCCUCUUUCACGUGCGCGUGACAGAGAGAAGUGAACCAGAGAAACACACGUGGUGGUAUAUUACCUGGUA [A23C U53G], for which the self-cleavage is 0.562.

For the variant GUCCGCUUUCACGCGCGCGUGAAAGAGAGAAGUGAACCAGAGAAACACACGUUGUGGUAUAUUACCUGGUA [U5G U14C], the self-cleavage stood at 0.383.

Take GUUCUCUUUCACGUGCGCGUGAAAGAGAGAAGUGAACCAGAGAAACACACGUUUUGGUAUAUUACCUGGUA [C3U G54U]: the self-cleavage worked out at 0.227.

Consider GUCAUCUUUCACGUGCGCGUGAAAGAGAGAAGUGAACCAGAGGAACACACGUUGUGGUAUAUUACCUGGUA [C4A A43G], for which the self-cleavage is 0.0748.

As to GUCCUCUUUCACGUGCUCGUGAAAGAGAGAAGUGAACCAGAGGAACACACGUUGUGGUAUAUUACCUGGUA [G17U A43G], the self-cleavage stood at 0.0761.

For GUCCUCUUUCACGUGCGCGUGAAAGAUAGAUGUGAACCAGAGAAACACACGUUGUGGUAUAUUACCUGGUA [G27U A31U], the self-cleavage came out at 0.119.

Turning to GUCCUCUUUCACGUGCGCGUGAAAGAGAGAACUGAACCAAAGAAACACACGUUGUGGUAUAUUACCUGGUA [G32C G40A], the self-cleavage was determined as 0.164.

On to GUCCUCUUUCACGUGCGCGUGAAAGAGAGAAGUGAACCAGAGAACCACACCUUGUGGUAUAUUACCUGGUA [A45C G51C], for which the self-cleavage stood at 0.0857.
